{"source": "patent US9238830", "key": {"[1]": {"tested_on": "PilE T62A variant of N. meningitidis MC58 pilin (pPilET62A)"}, "[2]": {"tested_on": "PilE N60A variant of N. meningitidis MC58 pilin (pPilEN60A)"}, "[3]": {"tested_on": "N. meningitidis MC58 pilin (PilE, expression product of pilE, Accession No. AAF40497)"}, "[4]": {"tested_on": "PilE S63A variant of N. meningitidis MC58 pilin (pPilES63A)"}, "[5]": {"tested_on": "PilE N61A variant of N. meningitidis MC58 pilin (pPilEN61A)"}}, "data": [{"substance": "PglL oligosaccharyltransferase of N. meningitidis MC58 (Accession No. AAF41024), His10-tagged (pAMF5)", "values": [{"measurement": "transfer of O7 polysaccharide to PilE (western blot)", "setting": "[1]", "value": "mutation of N60, N61 and T62 do not affect glycosylation"}, {"measurement": "transfer of O7 polysaccharide to PilE (western blot)", "setting": "[2]", "value": "mutation of N60, N61 and T62 do not affect glycosylation"}, {"measurement": "glycosylation of pilin in E. coli CLM24 (western blot, band shift)", "setting": "[3]", "value": "an extra band of slower electrophoretic mobility was detected with both a monoclonal anti-pilin antiserum and the C. jejuni glycan-specific R12 antiserum"}, {"measurement": "transfer of O7 polysaccharide to PilE (western blot)", "setting": "[4]", "value": "mutation S63A completely abolishes transfer of the polysaccharide to PilE"}, {"measurement": "transfer of O7 polysaccharide to PilE (western blot)", "setting": "[5]", "value": "mutation of N60, N61 and T62 do not affect glycosylation"}]}]}
